In the nanobody polyreactivity screen of Harvey et al. (2022):

Experiment: yeast display, Sf9 membrane polyspecificity reagent, FACS + sequencing; frameworks hold sequencing errors
Method in brief: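 Using colony PCR, genes from sorted yeast display clones were amplified, then sequenced on MiSeq at 2 × 250 and filtered by CDR length. The clones had been stained with 10% biotinylated, detergent-solubilized Sf9 membrane reagent for 1 hour at 4 °C and sorted by FACS into low and high (top ~1%) gates on anti-HA and streptavidin fluorescence. Polyreactivity labels come from the gate of origin.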
For “QVQLVESGGGLVQAGGSLRLSCAASGRIFYVNAMGWYRQAPGKERELVAAIDVNDGITYYADSVKGRFTISRDNAKNTVYLQMNSLKPEDTAVYYCAAETLYWNDIIWDVEYWGQGTQVTVSS”, the “polyreactivity (PSR sort gate)” value was “high polyreactivity”.
In the case of “QVQLVESGGGLVQAGGSLRISCAASGSTFSRNAMGWYRQAPGKERELVAAISRRGDTTYYADSVKGRFTISRDNAKNTVYLQRNSLKPEDTGVYYCAASRYGYPKYGYWGQGTQVTVSS”, the “polyreactivity (PSR sort gate)” value is reported as “high polyreactivity”.
For “QVQLVESGRGLVQAGGSLRLSCAASGSIFISYAKGWYRQAPGKERELVAAITWSGDSTYYADSVKGRFTISRDNAKNTVYLQMNSLKPEDTAVYYCAKGQSRSLIYGRYGYWGQGTQVTVSS”, the “polyreactivity (PSR sort gate)” value was “low polyreactivity”.
In the case of “QVQLVESGGGLVQAGGSLRLSCAASGRIFAYYPMGWYRPAPGKERELVAAISRSGVSTYYADSVKGRFTISRDNAKNTVYLQMNSLKPEDTAVYYCAARWRSGFTSGDYWGQGTQVTVSS”, the “polyreactivity (PSR sort gate)” value is reported as “low polyreactivity”.
With “QVQLVESGGGLVQAGGSLRLSCAASGRTFERNAMGWYRQAPGKEREFVAAITEIGGSTYYADSVKGRFTISRDNAKNTVYLQMNSLKPEDTAVYYCAKDGTYSPYDYWGQGTQVTVSS” the “polyreactivity (PSR sort gate)” value was “low polyreactivity”.
For “QVQLVESGGGLVQAGGSLRLSCAASGNIFGRYAMGWYRQAPGKERELVAAISSGDITYYADSVKGRFTISRDNAKNTVYLQMNSLKPEDTAVYYCAADSYWSVVYIKYDYWGQGTQVTVSS”, the “polyreactivity (PSR sort gate)” value was “low polyreactivity”.
In the case of “QVQLVESGGGLVLAGGSLRLSCAASGRIFAVYAMGWYRQAPGQERELVAAIRARGGSTYYADSVKGRFTISRDNAKNTVDLQMNSLKPEDTPDYYCTARTSYSRTYRYYYWGQGTQVTVSS”, the “polyreactivity (PSR sort gate)” value is reported as “high polyreactivity”.
In the case of “QVQLVESGGGLVQAGGSLRLSCAASGRTFRAYALGWYRQAPGKERELVAAITSGGSTKYADSVKGRFTISRDNAKNTVYLQMNSLKPEDTAVYYCNARVRVRLGRNWSSYYYWGQGTQVTVSS”, the “polyreactivity (PSR sort gate)” value is reported as “high polyreactivity”.
For “QAQLQESGGSLVQAGGGLRLSCAASGYISVGSVMGWYRQAPSKERELVASIDQGANTNYADSVKGRFTISRDNAKNNVYLQMNSLKPEDTAVYYCATVTTYILNYWGQGTQVTVCS”, the “polyreactivity (PSR sort gate)” value was “low polyreactivity”.
With “HVQLVESGGGLVQAGGSLRLSCAASGSIFVLNAMGWYRQAPGKERELVAAITNVGSTYYADSVKGRFTISRDNAKNTVYLQMNSLKPEDTAVYYCNADPGEVLVGYDYWGQGTQVTVSS” the “polyreactivity (PSR sort gate)” value was “low polyreactivity”.
For “QVQLVETGGGLVQAGGSLRLSCAASGGILVGYALGWYRQAPGKERELVAAINYSGGSTNYADSVKGRFTISRDNAKNTVYLQMNSLKPEDTAVYYCAARSTARYGYWGQGTQVTVSS”, the “polyreactivity (PSR sort gate)” value was “low polyreactivity”.
In the case of “QVQLVESGGGLVQAGGSLRLICAASGSILYYYVMGWYRQAPGKERQLVAAITSGGSTYYADSVKGRFTISRDNAKNNVYLQMNSLKPEDTAVYYCAVRPRRQYSPSRWGTGCYWGQGTQVTVSS”, the “polyreactivity (PSR sort gate)” value is reported as “high polyreactivity”.
For “QVQLVESGGGLVHAGGSLRLSCAASGFILYSYAMGWYRQAPGKERELVAAINSTGSTYYADSVKGRFTISRDNAKNTVYLQMNSLKPEDTAFYYCATDPWYQTDLSYDTPYYYWGQGKQVTVSS”, the “polyreactivity (PSR sort gate)” value was “low polyreactivity”.
In the case of “QVQLVESGGGLVQAGGSLRLSCAASGSTLSVNAMGWYRPAPGKERELVAAIDFDGGDTYYADSVKGRFTISRDNAKNNVYLQMNSLKPEDTAVYYCAADIGGQYDYLADDYWGQGTQVTVSS”, the “polyreactivity (PSR sort gate)” value is reported as “low polyreactivity”.
For “QVQLVESGGGLVQAGGSLRLSCAASGFTFDAYTMGWYREAPGKERELVAAINWSGDTTYYADSVKGRFTISRDNAMNTVYLQMNSLKPEDTAVYYCAAVWLNYGVWFDYWGQGTQVTVSS”, the “polyreactivity (PSR sort gate)” value was “high polyreactivity”.
For “QVQHVESGGGLVQAGGSLRLSSAASGRIFPINAMGWYRQAPGKERELVAAISYSGGSTYYADSVKGRFTISRDNAKNTVYLQMNSLKPEDTAVFYCNARYPYSYYHRYYYWGQGTQVTVSS”, the “polyreactivity (PSR sort gate)” value was “high polyreactivity”.
With “QVQLVESGGGLVQAGGSLRLSCAASGRIFASYAMGWYRQAPGKERELVAAISLSGGSTYYADSVKGRFTISRDIAKNTVYLQMNSLKPEDTAVYYCAAKNYRRYRDYYWGQGTQVTVSS” the “polyreactivity (PSR sort gate)” value was “high polyreactivity”.
With “QVQLVESGGGLVQAGGSLRLSCAASGFTLGVNAMGWYRQAPGKERELVAAISRGGSTDYADSVKGRFTISRDNAKNTVDLQMYSLKPEDTAVYYCAAETYAWYRGWEGYWGPGTQVTVSS” the “polyreactivity (PSR sort gate)” value was “high polyreactivity”.
For “QVQLVESGGGLVQAGGSLRLSCAASGRIFTHNAMGWYRQAPGKERELVAAITWTGGSTYADSVKGRFTISRDNAKKTVYLQMNSLKPEDTAVYYCNARAHRYYLYDVQFGRGHSGGYWGQGTQVTVSS”, the “polyreactivity (PSR sort gate)” value was “low polyreactivity”.
With “QVHLVESGGGLVQAGGSLRLSCAASGSIFINNTMGWYRQAPGKERELVAAISITGGSTYYADSVKGRFTISRDNAKNTVYLQMNSLKPEDTAVYYCAADPLQLYDYNYWGQGTQVTVSS” the “polyreactivity (PSR sort gate)” value was “low polyreactivity”.
In the case of “HFQLVEAGGGLVQAGGSLSLSCADSGRTYSHYAMGWYSQAPAQVRELVAGISSGSRTNYADSVKGRFTISRDNAKNTVYLQMNSLKPEDTAFYYCAARTNYLKGGYWGQGTQVTVSS”, the “polyreactivity (PSR sort gate)” value is reported as “high polyreactivity”.
With “QVQLVESGGGLVQAGGSLRLSCAASGSIFGYYAMGWYRQAPGKERELVAAISVRGGSTYYADSVKGRFTISRDNAKNTVYLQMNSLKPEDTAVYYCAARISYSLSYWGQGTQVTVSS” the “polyreactivity (PSR sort gate)” value was “high polyreactivity”.
For “QVQLVESGGGLVQAGGSRRLSCAASGRTFYKYAMGWYRQAPGKERELVAAISGGGTTNYADSVKGRFTISRDNAKNTVYLQMNSLKPEDTAVYYCNAARTRWATGYDYWGQGTQVTVSS”, the “polyreactivity (PSR sort gate)” value was “low polyreactivity”.
In the case of “QVQLVESGGGLVQAGGSLRLSCAASGFTFGGYVMGWYRQAPGKERELVAAISSSGGITHYADSVKGRFTISRDNAKNTVYLQMNSLKPEDTAVYYCNALYRQRYYWGQGTQVTVSS”, the “polyreactivity (PSR sort gate)” value is reported as “high polyreactivity”.
In the case of “QVQLVESGGVLVQAGGSLRLSCAASGRTFYLYAMGWSRQAPGKERELVAAISRSGGITYYADSVKGRFTISRDNAKNTVYLQMNSLKPEDTAVYYCAASRAGGYYGKGYSWGQGTQVTVSS”, the “polyreactivity (PSR sort gate)” value is reported as “high polyreactivity”.
For “QVQLVESGGGLVQAGGSLRLSCAASGSIFAGNAMGWYRQAPGRERELVAGITFGDDSTYYADSVKGRFTISRDNAKNTVYLQMNSLKPEDTAVYYCATDMHPYNYYFYHYWVDAAYDYWGQGTQVTVSS”, the “polyreactivity (PSR sort gate)” value was “low polyreactivity”.
With “LVQLVESGGALVQAGGSLRLSCAASGLIFYDYAMGWYRQAPGNDRELVAAISKGGGSTYYADSVKGRFTISRDYAKNSVYLQMNSLNTEDTAVYYGAASTSHTTDTRYDYWGQGTQVTVSS” the “polyreactivity (PSR sort gate)” value was “low polyreactivity”.
With “QVQLEESGGGLVQAGGSLRLSCAASGRIFYGNSMGWYRQAPGKERELVAAISKRGGSTYYADSVKGRFTISRDNAKNTVYLQMNSLKPEDTAVYYCAASYPTRAWEYDYWGQGTQVTVAS” the “polyreactivity (PSR sort gate)” value was “high polyreactivity”.
For “QVHLVESGGGLVQAGGRLRLSCAASGSIFDDYAMGWYRQAPGKERELVAAITSGGSTYYADSVKGRFTISRDNAKNNVYLEMNSLKPEDTAVYYRATRYHWSSSFAPVGAYGYWGQGSQVTVSS”, the “polyreactivity (PSR sort gate)” value was “low polyreactivity”.
In the case of “QVQLVESGGGLVQAGGSLRLSCAASGRIFWTNDMGWYSKAPGKERELVAGITWRGGSTYYADSVKGRFTISRDNAKNTVYLQMNSLKPEDTAVYYCATRYRRVYTWYDYWGQGTQVTVSS”, the “polyreactivity (PSR sort gate)” value is reported as “high polyreactivity”.
